In the test the target is S蛋白RBD-His (319Arg-532Asn) (2019-nCoV (SARS-CoV-2)) (UniProt P0DTC2). Briefly: BLI (Fortebio), RBD-His on Anti-Penta-HIS sensor, antibody in solution.

对照抗体CR3022 (antibody): the Kd worked out at 2.42 nM, the koff amounted to 0.000278 s⁻¹ and the kon was 115000 M⁻¹ s⁻¹.

(Values after patent CN111690058A.)
